B1: Twister Ribozyme (parent)
chain: AACACUGCCAAUGCCGGUCCCAAGCCCGGAUAAAAGUGGAGGGGGCGG

Variants of: B1
Experiment: self-cleavage, relative activity (ratio to wild type); higher = more cleavage; co-transcriptional

Row | Variant | self-cleavage
1 | AACACAGCCAAUGCCGGUCCCAAGCCCGGAUAAAAGUGGAGGAGGCGG [U6A G43A] | 0.223
2 | AACACAGCCAAUGCCGGUCCCAAGCCCGGAUAAAAGUGGAGGGAGCGG [U6A G44A] | 0.943
3 | AACACAGCCAAUGCCGGUCCCAAGCCCGGAUAAAAGUGGAGGGCGCGG [U6A G44C] | 0.874
4 | AACACAGCCAAUGCCGGUCCCAAGCCCGGAUAAAAGUGGAGGGUGCGG [U6A G44U] | 0.925
5 | AACACAGCCAAUGCCGGUCCCAAGCCCGGAUAAAAGUGGAGGGGUCGG [U6A G45U] | 0.695
6 | AACACAGCCAAUGCCGGUCCCAAGCCCGGAUAAAAGUGGAGGGGGCGA [U6A G48A] | 0.76
7 | AACACAGCCAAUGCCGGUCCCAAGCCCGGAUAAAAGUGGAGGGGGCGU [U6A G48U] | 0.782
8 | AACACAGCCAAAGCCGGUCCCAAGCCCGGAUAAAAGUGGAGGGGGCGG [U6A U12A] | 1.13
9 | AACACAGCCAAUGCCGGACCCAAGCCCGGAUAAAAGUGGAGGGGGCGG [U6A U18A] | 0.174
10 | AACACAGCCAAUGCCGGGCCCAAGCCCGGAUAAAAGUGGAGGGGGCGG [U6A U18G] | 0.0743
11 | AACACAGCCAAUGCCGGUCCCAAGCCCGGAUAAAAGCGGAGGGGGCGG [U6A U37C] | 0.124
12 | AACACAGCCAAUGCCGGUCCCAAGCCCGGAUAAAAGGGGAGGGGGCGG [U6A U37G] | 0.328
13 | AACACCGCCAAUGCCGGUCCCAAGCCCGGAUAAAAGUGGAGGGGGCGG [U6C] | 0.596
14 | AACACCGCCCAUGCCGGUCCCAAGCCCGGAUAAAAGUGGAGGGGGCGG [U6C A10C] | 0.772
15 | AACACCGCCUAUGCCGGUCCCAAGCCCGGAUAAAAGUGGAGGGGGCGG [U6C A10U] | 0.602
16 | AACACCGCCACUGCCGGUCCCAAGCCCGGAUAAAAGUGGAGGGGGCGG [U6C A11C] | 0.292
17 | AACACCGCCAGUGCCGGUCCCAAGCCCGGAUAAAAGUGGAGGGGGCGG [U6C A11G] | 0.535
18 | AACACCGCCAUUGCCGGUCCCAAGCCCGGAUAAAAGUGGAGGGGGCGG [U6C A11U] | 0.673
19 | AACACCGCCAAUGCCGGUCCCUAGCCCGGAUAAAAGUGGAGGGGGCGG [U6C A22U] | 0.141
20 | AACACCGCCAAUGCCGGUCCCAUGCCCGGAUAAAAGUGGAGGGGGCGG [U6C A23U] | 0.0534
21 | AACACCGCCAAUGCCGGUCCCAAGCCCGGUUAAAAGUGGAGGGGGCGG [U6C A30U] | 0.493
22 | AACACCGCCAAUGCCGGUCCCAAGCCCGGAUGAAAGUGGAGGGGGCGG [U6C A32G] | 0.518
23 | AACACCGCCAAUGCCGGUCCCAAGCCCGGAUACAAGUGGAGGGGGCGG [U6C A33C] | 0.12
24 | AACACCGCCAAUGCCGGUCCCAAGCCCGGAUAUAAGUGGAGGGGGCGG [U6C A33U] | 0.319
25 | AACACCGCCAAUGCCGGUCCCAAGCCCGGAUAAACGUGGAGGGGGCGG [U6C A35C] | 0.403
26 | AACACCGCCAAUGCCGGUCCCAAGCCCGGAUAAAAGUGGGGGGGGCGG [U6C A40G] | 0.0788
27 | AACACCGUCAAUGCCGGUCCCAAGCCCGGAUAAAAGUGGAGGGGGCGG [U6C C8U] | 0.174

Row | Variant | self-cleavage
28 | AACACCGCGAAUGCCGGUCCCAAGCCCGGAUAAAAGUGGAGGGGGCGG [U6C C9G] | 0.122
29 | AACACCGCUAAUGCCGGUCCCAAGCCCGGAUAAAAGUGGAGGGGGCGG [U6C C9U] | 0.0507
30 | AACACCGCCAAUGGCGGUCCCAAGCCCGGAUAAAAGUGGAGGGGGCGG [U6C C14G] | 0.0559
31 | AACACCGCCAAUGCAGGUCCCAAGCCCGGAUAAAAGUGGAGGGGGCGG [U6C C15A] | 0.169
32 | AACACCGCCAAUGCUGGUCCCAAGCCCGGAUAAAAGUGGAGGGGGCGG [U6C C15U] | 0.354
33 | AACACCGCCAAUGCCGGUGCCAAGCCCGGAUAAAAGUGGAGGGGGCGG [U6C C19G] | 0.0653
34 | AACACCGCCAAUGCCGGUUCCAAGCCCGGAUAAAAGUGGAGGGGGCGG [U6C C19U] | 0.131
35 | AACACCGCCAAUGCCGGUCACAAGCCCGGAUAAAAGUGGAGGGGGCGG [U6C C20A] | 0.0292
36 | AACACCGCCAAUGCCGGUCUCAAGCCCGGAUAAAAGUGGAGGGGGCGG [U6C C20U] | 0.169
37 | AACACCGCCAAUGCCGGUCCUAAGCCCGGAUAAAAGUGGAGGGGGCGG [U6C C21U] | 0.0537
38 | AACACCGCCAAUGCCGGUCCCAAGGCCGGAUAAAAGUGGAGGGGGCGG [U6C C25G] | 0.0594
39 | AACACCGCCAAUGCCGGUCCCAAGUCCGGAUAAAAGUGGAGGGGGCGG [U6C C25U] | 0.184
40 | AACACCGCCAAUGCCGGUCCCAAGCACGGAUAAAAGUGGAGGGGGCGG [U6C C26A] | 0.0404
41 | AACACCGCCAAUGCCGGUCCCAAGCGCGGAUAAAAGUGGAGGGGGCGG [U6C C26G] | 0.125
42 | AACACCGCCAAUGCCGGUCCCAAGCCAGGAUAAAAGUGGAGGGGGCGG [U6C C27A] | 0.0694
43 | AACACCGCCAAUGCCGGUCCCAAGCCCGGAUAAAAGUGGAGGGGGAGG [U6C C46A] | 0.65
44 | AACACCACCAAUGCCGGUCCCAAGCCCGGAUAAAAGUGGAGGGGGCGG [U6C G7A] | 0.0638
45 | AACACCCCCAAUGCCGGUCCCAAGCCCGGAUAAAAGUGGAGGGGGCGG [U6C G7C] | 0.0439
46 | AACACCGCCAAUACCGGUCCCAAGCCCGGAUAAAAGUGGAGGGGGCGG [U6C G13A] | 0.0845
47 | AACACCGCCAAUCCCGGUCCCAAGCCCGGAUAAAAGUGGAGGGGGCGG [U6C G13C] | 0.107
48 | AACACCGCCAAUUCCGGUCCCAAGCCCGGAUAAAAGUGGAGGGGGCGG [U6C G13U] | 0.0523
49 | AACACCGCCAAUGCCAGUCCCAAGCCCGGAUAAAAGUGGAGGGGGCGG [U6C G16A] | 0.318
50 | AACACCGCCAAUGCCCGUCCCAAGCCCGGAUAAAAGUGGAGGGGGCGG [U6C G16C] | 0.146
51 | AACACCGCCAAUGCCGAUCCCAAGCCCGGAUAAAAGUGGAGGGGGCGG [U6C G17A] | 0.0938
52 | AACACCGCCAAUGCCGCUCCCAAGCCCGGAUAAAAGUGGAGGGGGCGG [U6C G17C] | 0.0484
53 | AACACCGCCAAUGCCGGUCCCAAACCCGGAUAAAAGUGGAGGGGGCGG [U6C G24A] | 0.0737
54 | AACACCGCCAAUGCCGGUCCCAACCCCGGAUAAAAGUGGAGGGGGCGG [U6C G24C] | 0.0688
